Assay results reported in the supplement of paper PMC10724198.
± gives the standard deviation of the averaged measurements.

Test system: Saccharomyces cerevisiae
Test: protein stability index of tFT-peptide fusion (C-terminal peptide) (PSI (0-1 scale)); higher = more stable (slower turnover)
Settings: temperature: 30 C
Experimental: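 MPS profiling in S. cerevisiae of the yeast C-terminome library: the last 12 aa of each annotated ORF are fused to the C-terminus of a sfGFP-mCherry timer, after a GGGS linker. Cells are FACS-sorted into 8 mCherry/sfGFP bins and deep-sequenced. PSI runs from 0 (unstable) to 1 (stable); wild type and das1Δ backgrounds, two technical replicates each.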

[1] = genetic background: das1 deletion

Sequence	protein stability index [1]	protein stability index (genetic background: wild type)
TGKDVMKGALGF [SRO7 C-terminal 12 aa]	0.6953 ± 0.0023	0.667 ± 0.024
CTIQKMREKANT [YNL028W C-terminal 12 aa]	0.677 ± 0.027	0.723 ± 0.062
KYFHEDVSEDAY [MET5 C-terminal 12 aa]	0.707 ± 0.028	0.699 ± 0.013
KKRRIHPTPVDL [CAC2 C-terminal 12 aa]	0.6974 ± 0.0037	0.724 ± 0.027
LSPSYSCRYHGR [YPL152W-A C-terminal 12 aa]	0.7126 ± 0.0044	0.6832 ± 0.004
GAGWSGFKKVFK [GYL1 C-terminal 12 aa]	0.692 ± 0.013	0.722 ± 0.042
GEDVLEGGCLLI [YIR023C-A C-terminal 12 aa]	0.708 ± 0.051	0.727 ± 0.057
SNSSKNRMNNYR [SPT6 C-terminal 12 aa]	0.702 ± 0.017	0.721 ± 0.034
DLYTEEFLKEGK [PRP39 C-terminal 12 aa]	0.683 ± 0.035	0.6685 ± 0.0064
PFDYSDIPAADI [GPI10 C-terminal 12 aa]	0.714 ± 0.023	0.698 ± 0.019
PQMARKQRGHIG [SDS23 C-terminal 12 aa]	0.678 ± 0.024	0.681 ± 0.0087
LLRKHVFPSVPK [VFA1 C-terminal 12 aa]	0.732 ± 0.026	0.738 ± 0.031
SRDYEETEYSVI [SPP381 C-terminal 12 aa]	0.709 ± 0.025	0.687 ± 0.062
EDHKFDLSTITV [MRPL24 C-terminal 12 aa]	0.703 ± 0.01	0.717 ± 0.023
GATEKRKCAKPF [CSL4 C-terminal 12 aa]	0.674 ± 0.033	0.687 ± 0.029
EENENDCDSEIQ [RTS1 C-terminal 12 aa]	0.7103 ± 0.0013	0.696 ± 0.0094
IFLNDVYFNLMV [YPR126C C-terminal 12 aa]	0.728 ± 0.016	0.686 ± 0.012
QNEQLQMLSNSV [ATG31 C-terminal 12 aa]	0.723 ± 0.028	0.673 ± 0.046
KSEVERVYKENS [FAA3 C-terminal 12 aa]	0.718 ± 0.0093	0.6803 ± 0.0059
GHNDGDINVWTL [CAF4 C-terminal 12 aa]	0.7185 ± 0.0052	0.7273 ± 0.0028
PIQDFIFNLVGE [VTC3 C-terminal 12 aa]	0.687 ± 0.0086	0.6981 ± 0.0027

Sequence	protein stability index [1]	protein stability index (genetic background: wild type)
SHPTEQTEVSSQ [MHR1 C-terminal 12 aa]	0.697 ± 0.0079	0.68 ± 0.02
FWHEVVVFPIPN [YDR015C C-terminal 12 aa]	0.717 ± 0.017	0.716 ± 0.062
CERCKSELQSVH [SET6 C-terminal 12 aa]	0.686 ± 0.0084	0.663 ± 0.03
GGGASSIVIEKI [ERG10 C-terminal 12 aa]	0.697 ± 0.035	0.694 ± 0.011
IFFILYTLFKLF [SFT1 C-terminal 12 aa]	0.422 ± 0.0091	0.199 ± 0.01
RKDEHIVQNIIN [YGR164W C-terminal 12 aa]	0.6993 ± 0.0033	0.681 ± 0.029
DFVDMYQTEHSG [MTF1 C-terminal 12 aa]	0.712 ± 0.0088	0.7301 ± 0.0034
YGTSYVFAISFK [YNL266W C-terminal 12 aa]	0.602 ± 0.036	0.606 ± 0.0098
RNQNSDRLNFQP [YBR138C C-terminal 12 aa]	0.705 ± 0.0061	0.675 ± 0.016
KITVSNLTNQQI [YCL001W-B C-terminal 12 aa]	0.6746 ± 0.0032	0.684 ± 0.04
EQEVIFTDLTAY [ECM32 C-terminal 12 aa]	0.742 ± 0.015	0.7 ± 0.012
KAFVEKLNSKKD [YBT1 C-terminal 12 aa]	0.707 ± 0.026	0.683 ± 0.011
DQIYWFNHFSNV [AIM2 C-terminal 12 aa]	0.7141 ± 0.0021	0.696 ± 0.027
LKPWEGRIYLVK [MAL12 C-terminal 12 aa]	0.6483 ± 0.0018	0.697 ± 0.022
KKRISEKQHFIE [AMF1 C-terminal 12 aa]	0.689 ± 0.038	0.633 ± 0.016
YEEALKLGWDKN [OYE2 C-terminal 12 aa]	0.735 ± 0.046	0.762 ± 0.0096
QKENQYHPRRNQ [YML009W-B C-terminal 12 aa]	0.7123 ± 0.0032	0.691 ± 0.039
RKAAERDNMLTT [CTL1 C-terminal 12 aa]	0.704 ± 0.015	0.706 ± 0.0072
KGAFQKVAATSR [RPL24A C-terminal 12 aa]	0.7102 ± 0.0065	0.685 ± 0.0079
GEDEENTVDSQY [YOL131W C-terminal 12 aa]	0.688 ± 0.015	0.6803 ± 0.0017
